The target of experiment [1] is T1, p105 (Homo sapiens, UniProt P19838).
T1 sequence (P19838 1-968): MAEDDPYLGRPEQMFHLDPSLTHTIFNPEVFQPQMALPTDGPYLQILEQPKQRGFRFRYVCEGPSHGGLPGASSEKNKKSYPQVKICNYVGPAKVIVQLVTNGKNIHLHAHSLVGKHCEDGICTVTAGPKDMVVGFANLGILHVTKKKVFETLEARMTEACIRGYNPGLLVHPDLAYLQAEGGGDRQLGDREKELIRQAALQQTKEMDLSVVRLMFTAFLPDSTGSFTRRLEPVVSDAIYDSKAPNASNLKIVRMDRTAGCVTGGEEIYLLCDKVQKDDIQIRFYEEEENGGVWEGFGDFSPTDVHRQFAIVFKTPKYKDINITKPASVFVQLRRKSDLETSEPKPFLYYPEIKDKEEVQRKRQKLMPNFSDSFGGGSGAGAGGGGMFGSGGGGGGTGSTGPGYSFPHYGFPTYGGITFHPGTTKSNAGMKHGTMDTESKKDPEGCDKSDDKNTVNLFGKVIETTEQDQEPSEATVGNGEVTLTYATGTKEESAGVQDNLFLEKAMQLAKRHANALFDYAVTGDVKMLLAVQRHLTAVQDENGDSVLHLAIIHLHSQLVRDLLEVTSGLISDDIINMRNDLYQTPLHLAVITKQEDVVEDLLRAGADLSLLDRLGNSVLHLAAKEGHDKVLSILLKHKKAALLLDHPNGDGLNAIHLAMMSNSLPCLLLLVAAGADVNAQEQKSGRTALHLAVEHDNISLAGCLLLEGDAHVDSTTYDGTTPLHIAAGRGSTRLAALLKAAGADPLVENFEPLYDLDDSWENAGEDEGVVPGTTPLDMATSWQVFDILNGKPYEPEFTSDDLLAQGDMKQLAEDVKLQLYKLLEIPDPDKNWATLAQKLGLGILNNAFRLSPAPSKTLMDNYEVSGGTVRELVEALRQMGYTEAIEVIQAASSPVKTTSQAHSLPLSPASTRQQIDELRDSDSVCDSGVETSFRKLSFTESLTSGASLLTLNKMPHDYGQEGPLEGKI
Kind of experiment: Ubiquitination of p105 by purified KPC1 species in cell-free conjugation assay. In kind it is biochemical. As to conditions: reconstituted cell-free system, in vitro translated 35S-labeled p105, purified Ub, E1, E2, UbAl, ATP. From the text:
FIGS. 4A and 4B represent western blots showing in vitro ubiquitination of p105 by mutated species of KPC1: FIG. 4A: In vitro translated and ^35S-labeled p105 was ubiquitinated by purified KPC1-Δ1-967-6xHIS (lanes 2-4) or KPC1-Δ1-974-6xHIS (lanes 5-7) in a reconstituted cell-free system. 4B) In vitro translated and ^355-labeled p105 was ubiquitinated by purified KPC1-Δ1-967-6xHIS (lanes 2,5,6), KPC1-Δ1-974-6xHIS (lane 3), KPC1-Δ967-1043-6xHIS (lane 4), WILVRLW-KPC1-Δ1-1039-6xHIS (lanes 7-8) or WILVRLW-KPC1-Δ1-1061-6xHIS (lanes 9-10) in a reconstituted cell-free system.
In order to assess if the interaction between two proteins leads to the conjugation of the substrate p105, ubiquitination reaction was performed in cell free system. The conjugation reaction was carried out in the presence of purified Ub, E1, E2, UbAl, ATP and KPC1—either wild-type or different mutant species. Samples were resolved via SDS-PAGE and the 35S-labeled p105 and its adducts were visualized using autoradiography. […] In addition, the shorter versions of KPC1 in which the 7 amino acids sequence were brought closer to RING domain, the active site of the enzyme were prepared. Both truncated KPC1 proteins that harbor the 7 amino acid sequence, WILVRLW-KPC1-Δ1-1039 (SEQ ID. No. 6) and WILVRLW-KPC1-Δ1-1061 (SEQ ID. No. 7), modified p105 (FIG. 4B, lanes 7-10).

Experiment [2] has as its system glioblastoma U87-MG tumor. Kind of experiment: Growth of U87-MG tumor xenografts overexpressing KPC1 species in nude mice. In kind it is in vivo. As to conditions: overexpression in U87-MG cells injected to nude mice; growth rates and weights of xenografts, three weeks after inoculation. From the text:
FIG. 8A and FIG. 8B depict growth rates and weights of tumor xenografts grown in nude mice, and derived from U87-MG expressing V0 (control), Myc-KPC1 or Flag-WILVRLW-KPC1Δ1-1039 (SEQ ID NO: 6).
Growth rates and weights (FIG. 8B) of tumor xenografts grown in nude mice, and derived from U87-MG expressing VO (control), Myc-KPC1, and Flag-WILVRLW-KPC1Δ1-1039 (SEQ ID. No. 6).

In experiment [3] the target is T1, p105. Kind of experiment: Co-immunoprecipitation (Co-IP) of KPC1 species with p105-HA from transfected HEK293T cells. The note with it: anti-FLAG immunoprecipitation, anti-NF-κB1 western blot, listed as full-length KPC1. In kind it is binding. Also on record: HA; expressed in transfected cells; host or cells: HEK293T. From the text:
FIG. 1B is a western blot showing the following: HEK293T cells were transfected with cDNAs coding for p105-HA (lanes 1-6), along with the different KPC1 species as following: W.T KPC1 (lane 1), KPC1Δ969-1314 (lane 2), KPC1Δ1-438 & 1039-1314 (lane 3), KPC1Δ1-967 (lane 4) and KPC1Δ1-1042 (lane 5). Lane 6 was transfected with an empty vector. KPC1 species were immunoprecipitated using immobilized FLAG antibodies, resolved by SDS-page, and NF-κB1 and KPC1 proteins were visualized by anti-NF-κB1 (FIG. 1B (upper)) and anti-FLAG (FIG. 1B (bottom)) antibodies, respectively. 10% of the total cell lysate was analyzed for the expression of p105-HA.
FIG. 2B is a western blot. HEK293T cells were transfected with cDNAs coding for p105-HA (lanes 1-7), along with different KPC1 species as following: WT KPC1 (lane 1), KPC1Δ1-967 (lane 2), KPC1Δ967-1043 (lane 3), KPC1Δ1-973 (lane 4), KPC1Δ1-1017 (lane 5) and KPC1ΔCC domain (lane 6). Lane 7 represents cells that were transfected with empty vector. KPC1 species were immunoprecipitated using immobilized FLAG antibodies, resolved by SDS-page. NF-κB1 and KPC1 proteins were visualized with anti-NF-κB1 (FIG. 2B (i)) and anti-FLAG (FIG. 2B (ii)) antibodies, respectively. 10% of the total cell lysate was analyzed for the expression of p105-HA. FIGS. 3A and 3B: FIG. 3A is a schematic representation of KPC1 species used in the experiment shown in FIG. 3B that was directed to evaluating the region of KPC1 that is responsible for the interaction with p105.
FIG. 3B is a western blot. HEK293T cells were transfected with cDNAs coding for p105-HA (lanes 1-12), along with different KPC1 species as following: KPC1-FLAG (lane 1), WILVRLW-KPC1 Δ 1-1253 (SEQ ID NO: 8) (lane 2), ILVRLW-KPC1 Δ 1-1253 (SEQ ID NO: 10) (lane 3), LVRLW-KPC1 Δ 1-1253 (SEQ ID NO: 11) (lane 4), VRLW-KPC1 Δ 1-1253 (lane 5) (SEQ ID NO: 12), RLW-KPC1 Δ 1-1253 (lane 6) SEQ ID NO:13), KPC1 Δ 1-1253 (lane 7), WILVRL-KPC1 Δ 1-1253 (lane 8) (SEQ ID NO: 14), WILVR-KPC1 Δ 1-1253 (SEQ ID NO: 15) (lane 9), WILV-KPC1 Δ 1-1253 (SEQ ID NO: 16) (lane 10), WIL-KPC1 Δ 1-1253 (SEQ ID NO: 17 (lane 11). Lane 12 represents cells that were transfected with empty vector. KPC1 species were immunoprecipitated using immobilized FLAG antibodies, resolved by SDS-page. NF-κB1 and KPC1 proteins were visualized by anti-NF-κB1 (FIG. 3B, (i, ii) and anti-FLAG (FIG. 3B, (iii) antibodies, respectively. 10% of the total cell lysate was analyzed for the expression of p105-HA (FIG. 3B, (ii)).
HEK293T cells were transiently transfected with the various KPC1 species along with p105-HA using the j etPEI reagent. 48 hours after transfection, the cells were harvested and lysed with RIPA buffer [150 mM NaCl, 0.5% sodium deoxycholate, 50 mM Tris-HCl (pH 8.0), 0.1% SDS, and 1% NP-40, supplemented with freshly added protease inhibitors mixture]. KPC1 species proteins were immunoprecipitated with immobilized anti-FLAG, with subsequent washing of the beads five times with RIPA buffer. The immunoprecipitated proteins were resolved by SDS-PAGE (10%, FIGS. 1A, 1B, 2A and 2B, with a gel gradient, of 4-20%; FIGS. 3A and 3B), and blotted onto nitrocellulose (FIGS. 1A, 1B, 2A and 2B) or PVDF (FIGS. 3A and 3B) membranes. p105 and KPC1 species were visualized using anti-NF-κB1 or anti-FLAG antibodies, respectively.
Identification of the region of KPC1 that is responsible for the interaction with p105. In order to identify the region of KPC1 that is responsible for the interaction with p105, several truncated segments of the DNA sequence of the KPC1 protein were cloned. The truncated segments were inserted into the pCAGGS expression vector to analyze their interaction with p105 by co-immunoprecipitation (Co-IP) from cells. HEK 293T cells were transfected with cDNAs coding for p105-HA, along with different fragments of KPC1 (FIG. 1A). Species of KPC1 were immunoprecipitated using an immobilized anti-Flag antibody. […]

B1: WILVRLW-KPC1-Δ1-1039: truncated KPC1 with the 7 amino acid sequence brought closer to RING domain, SEQ ID NO: 6 (protein)
chain: WILVRLWAFSEFIGMIQEIQQAAERLERNFVDSRQLKVCATCFDLSVSLLRVLEMTITLVPEIFLDWTRPTSEMLLRRLAQLLNQVLNRVTAERNLFDRVVTLRLPGLESVDHYPILVAVTGILVQLLVRGPASEREQATSVLLADPCFQLRSICYLLGQPEPPAPGTALPAPDRKRFSLQSYADYISADELAQVEQMLAHLTSASAQAAAASLPTSEEDLCPICYAHPISAVFQPCGHKSCKACINQHLMNNKDCFFCKTTIVSVEDWEKGANTSTTSSAA
For B1, the “ubiquitination of p105” value in experiment [1] is reported as “modified p105”. Besides, the tumor growth entry in experiment [2] is “repressed glioblastoma U87-MG tumor growth”.

B2: KPC1: wild-type ubiquitin ligase KPC1 (RNF123), SEQ ID NO: 2 (protein)
chain: MASKGAGMSFSRKSYRLTSDAEKSRVTGIVQEKLLNDYLNRIFSSSEHAPPAATSRKPLNFQNLPEHLDQLLQVDNEEEESQGQVEGRLGPSTVVLDHTGGFEGLLLVDDDLLGVIGHSNFGTIRSTTCVYKGKWLYEVLISSQGLMQIGWCTISCRFNQEEGVGDTHNSYAYDGNRVRKWNVTTTNYGKAWAAGDIVSCLIDLDDGTLSFCLNGVSLGTAFENLSRGLGMAYFPAISLSFKESVAFNFGSRPLRYPVAGYRPLQDPPSADLVRAQRLLGCFRAVLSVELDPVEGRLLDKESSKWRLRGQPTVLLTLAHIFHHFAPLLRKVYLVEAVLMSFLLGIVEKGTPTQAQSVVHQVLDLLWLFMEDYEVQDCLKQLMMSLLRLYRFSPIVPDLGLQIHYLRLTIAILRHEKSRKFLLSNVLFDVLRSVVFFYIKSPLRVEEAGLQELIPTTWWPHCSSREGKESTEMKEETAEERLRRRAYERGCQRLRKRIEVVEELQVQILKLLLDNKDDNGGEASRYIFLTKFRKFLQENASGRGNMPMLCPPEYMVCFLHRLISALRYYWDEYKASNPHASFSEEAYIPPQVFYNGKVDYFDLQRLGGLLSHLRKTLKDDLASKANIVIDPLELQSTAMDDLDEDEEPAPAMAQRPMQALAVGGPLPLPRPGWLSSPTLGRANRFLSTAAVSLMTPRRPLSTSEKVKVRTLSVEQRTREDIEGSHWNEGLLLGRPPEEPEQPLTENSLLEVLDGAVMMYNLSVHQQLGKMVGVSDDVNEYAMALRDTEDKLRRCPKRRKDILAELTKSQKVFSEKLDHLSRRLAWVHATVYSQEKMLDIYWLLRVCLRTIEHGDRTGSLFAFMPEFYLSVAINSYSALKNYFGPVHSMEELPGYEETLTRLAAILAKHFADARIVGTDIRDSLMQALASYVCYPHSLRAVERIPEEQRIAMVRNLLAPYEQRPWAQTNWILVRLWRGCGFGYRYTRLPHLLKTKLEDANLPSLQKPCPSTLLQQHMADLLQQGPDVAPSFLNSVLNQLNWAFSEFIGMIQEIQQAAERLERNFVDSRQLKVCATCFDLSVSLLRVLEMTITLVPEIFLDWTRPTSEMLLRRLAQLLNQVLNRVTAERNLFDRVVTLRLPGLESVDHYPILVAVTGILVQLLVRGPASEREQATSVLLADPCFQLRSICYLLGQPEPPAPGTALPAPDRKRFSLQSYADYISADELAQVEQMLAHLTSASAQAAAASLPTSEEDLCPICYAHPISAVFQPCGHKSCKACINQHLMNNKDCFFCKTTIVSVEDWEKGANTSTTSSAA
As for B2, in experiment [2], the tumor growth result was “repressed glioblastoma U87-MG tumor growth”. Also, the “interaction with p105 (Co-IP)” value in experiment [3] was “an interaction between p105 and the full-length KPC1 protein was observed”.

Source of the values: US12421510B2, “Peptide, a complex and a method for treating cancer” (TECHNION RESEARCH & DEVELOPMENT FOUNDATION LIMITED, priority 2018, dated 2025).
